Consider 1 molecule from publication PMC4310248.

The data set addresses Exo10Rrp6 (crystal; Exo9 core + Rrp6 128-685 D238N) (Saccharomyces cerevisiae, UniProt Q12149;P38792;Q08285;P53859;P46948;Q05636;Q12277;P48240;P53256;P25359 …, D238N;Rrp6:). As to the kind of experiment: X-ray crystallography.

AAAAAAAAAAAAAAAAAAAAAAAA (ssRNA) [polyA24]: the binding result is on record as “binds”.
